# Source: patent publication US20030138440A1 (published 2003)
# Ends that are not written are not given here.
# B1: chimeric fusion protein with the CJUN-IL domain (other, not shown: large carriers)
# chain: IARLEEKIKTLKAQISELASTINMLREQIAQ
# modifications: also: domain of chimeric fusion protein, fusion partner and linker not given here
# B2: chimeric fusion protein with the ATF-1-II domain (other, not shown: large carriers)
# chain: IKSIENRIAVIENQIKTIIEEIKTIKDLISN
# modifications: also: domain of chimeric fusion protein, fusion partner and linker not given here
# B3: chimeric fusion protein with the CJUN-LL domain (other, not shown: large carriers)
# chain: LARLEEKLKTLKAQLSELASTLNMLREQLAQ
# modifications: also: domain of chimeric fusion protein, fusion partner and linker not given here
# B4: chimeric fusion protein with the ATF-1-LL domain (other, not shown: large carriers)
# chain: LKSLENRLAVLENQLKTLIEELKTLKDLLSN
# modifications: also: domain of chimeric fusion protein, fusion partner and linker not given here
# B5: chimeric fusion protein with the CREB-Pa-IL domain (other, not shown: large carriers)
# chain: IMSLEKKIEELTQTIMQLQNEISMLKNEIAQ
# modifications: also: domain of chimeric fusion protein, fusion partner and linker not given here
# notes: also called CREB-IL
# B6: chimeric fusion protein with the ATF2-LI domain (other, not shown: large carriers)
# chain: LQSIEKKLEDISSLLGQIQSELTLIRNELAQ
# modifications: also: domain of chimeric fusion protein, fusion partner and linker not given here
# B7: chimeric fusion protein with the ATF-1-IL domain (other, not shown: large carriers)
# chain: IKSLENRIAVLENQIKTLIEEIKTLKDLISN
# modifications: also: domain of chimeric fusion protein, fusion partner and linker not given here
# B8: chimeric fusion protein with the JUN-D-LI domain (other, not shown: large carriers)
# chain: LSRIEEKLKTIKSQLTEIASTLSLIREQLAQ
# modifications: also: domain of chimeric fusion protein, fusion partner and linker not given here
# B9: chimeric fusion protein with the CREB-Pa-LL domain (other, not shown: large carriers)
# chain: LMSLEKKLEELTQTLMQLQNELSMLKNELAQ
# modifications: also: domain of chimeric fusion protein, fusion partner and linker not given here
# notes: also called CREB-LL
# B10: chimeric fusion protein with the ATF2-LL domain (other, not shown: large carriers)
# chain: LQSLEKKLEDLSSLLGQLQSELTLLRNELAQ
# modifications: also: domain of chimeric fusion protein, fusion partner and linker not given here
# B11: chimeric fusion protein with the ATF2-IL domain (other, not shown: large carriers)
# chain: IQSLEKKIEDLSSLIGQLQSEITLLRNEIAQ
# modifications: also: domain of chimeric fusion protein, fusion partner and linker not given here
# B12: chimeric fusion protein with the JUN-D-LL domain (other, not shown: large carriers)
# chain: LSRLEEKLKTLKSQLTELASTLSLLREQLAQ
# modifications: also: domain of chimeric fusion protein, fusion partner and linker not given here
# B13: chimeric fusion protein with the CJUN-LI domain (other, not shown: large carriers)
# chain: LARIEEKLKTIKAQLSEIASTLNMIREQLAQ
# modifications: also: domain of chimeric fusion protein, fusion partner and linker not given here
# Molecular target: the molecule itself
# Test: self-association of the chimeric protein; size exclusion HPLC
# Description: By correlation with sedimentation velocity data, the multimerization state of additional ATFα-based domains was determined by size exclusion HPLC. HPLC size exclusion chromatography was performed on a column selected to resolve species of chimeric multimers ranging from dimers through pentamers. The selected column also resolved species including the Fab moiety of the chimera: Tetramers (6.5S by ultracentrifugation) consistently eluted from the column at 13.7±0.1 min.; trimers (5.5S) eluted at 14.0±0.1; and dimers (4.5S) eluted at 15.0±0.1 min. Data on additional domains is listed in Table 7 along with those determined by sedimentation.
row,Molecule,binding result
1,B1,binds
2,"LMSIEKKLEEITQTLMQIQNELSMIKNELAQ (other, not shown: large carriers, also: chimeric fusion protein, fusion partner and linker not given here, also called CREB-LI) [chimeric fusion protein with the CREB-Pa-LI domain]",binds
3,B2,binds
4,"LKSIENRLAVIENQLKTIIEELKTIKDLLSN (other, not shown: large carriers, also: chimeric fusion protein, fusion partner and linker not given here, copies left open) [chimeric fusion protein with the ATF-1-LI domain]",binds
5,B3,binds
6,B4,binds
7,B5,binds
8,B6,binds
9,B7,binds
10,B8,binds
11,B9,binds
12,B10,binds
13,B11,binds
14,B12,binds
15,B13,binds

# Molecular target: ICAM-1 on HeLa cells (human) (UniProt P05362)
# Sequence (P05362 28-532): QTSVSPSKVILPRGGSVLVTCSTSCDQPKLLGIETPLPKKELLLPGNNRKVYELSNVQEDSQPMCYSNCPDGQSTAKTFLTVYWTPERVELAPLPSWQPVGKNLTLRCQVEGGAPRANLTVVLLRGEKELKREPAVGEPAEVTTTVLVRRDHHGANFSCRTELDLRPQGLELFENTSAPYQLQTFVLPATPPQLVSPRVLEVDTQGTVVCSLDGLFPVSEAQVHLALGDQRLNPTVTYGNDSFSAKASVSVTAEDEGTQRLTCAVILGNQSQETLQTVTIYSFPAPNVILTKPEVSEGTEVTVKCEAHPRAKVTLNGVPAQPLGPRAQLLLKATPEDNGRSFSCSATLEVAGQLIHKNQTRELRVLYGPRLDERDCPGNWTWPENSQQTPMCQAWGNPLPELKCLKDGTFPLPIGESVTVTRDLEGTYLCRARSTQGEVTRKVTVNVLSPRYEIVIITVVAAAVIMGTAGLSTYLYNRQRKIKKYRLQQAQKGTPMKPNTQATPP
# Test: cell-based or functional assay
row,Molecule,"EC50, protection of HeLa cells from HRV15 infection"
1,anti-ICAM-1 monoclonal antibody RR/1 (Chemicon),> 10 nM
